pKd: −log10 of the molar value.
Target: SARS-CoV-2 main protease M^pro (untagged, native termini) (SARS-CoV-2) (UniProt P0DTD1)
Experiment: ITC

Substance	pKd	dH	stoichiometry N
compound 4 (acetyl-Gly-Phe-His aldehyde, tripeptide derivative of AT1001)	6.19	-12.7 kcal/mol	1.04
compound 57 (BOC-Gly-Phe-His aldehyde) (peptide)	6.35	-14.5 kcal/mol	0.991
compound 58 (octanoyl-Gly-Phe-His aldehyde) (peptide)	6.37	-16.4 kcal/mol	0.966
